T1: SynGSTC1 (Sll0067) (Synechocystis sp. PCC 6803, UniProt Q55139)
T1 construct: gene gst; Ni-NTA and size exclusion; about 180 residues; two-fold dimer in crystal
T1 sequence (Q55139 1-184): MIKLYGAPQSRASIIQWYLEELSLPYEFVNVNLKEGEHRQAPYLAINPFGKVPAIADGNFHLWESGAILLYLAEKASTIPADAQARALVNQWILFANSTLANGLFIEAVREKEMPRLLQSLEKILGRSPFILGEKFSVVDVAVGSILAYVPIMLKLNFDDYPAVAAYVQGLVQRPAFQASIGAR

T2: SynGSTC1 (Sll0067) (Synechocystis sp. PCC 6803, UniProt Q55139, S10C)
T2 construct: gene gst; Ni-NTA and size exclusion; about 180 residues; two-fold dimer in crystal
T2 sequence (Q55139 1-184 S10C): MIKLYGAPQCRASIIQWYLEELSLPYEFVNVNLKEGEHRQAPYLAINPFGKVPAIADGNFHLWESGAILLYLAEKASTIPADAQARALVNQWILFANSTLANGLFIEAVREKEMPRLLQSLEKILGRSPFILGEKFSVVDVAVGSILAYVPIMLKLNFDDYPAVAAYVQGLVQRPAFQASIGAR


Experiments:
SynGSTC1 (Sll0067) [1] = biological target: T1, SynGSTC1 (Sll0067); test: GSH-conjugation assay, spectrophotometric […] nm, Michaelis-Menten fit; assay type: biochemical; conditions: fixed saturating GSH; 100 mM phosphate pH 6.5; 25 °C
SynGSTC1 (Sll0067) [2] = biological target: T2, SynGSTC1 (Sll0067); test: NADPH/glutathione reductase-coupled thiol-transferase assay, […] nm; assay type: biochemical; conditions: fixed saturating GSH; 200 µM NADPH; 30 mM Tris-HCl pH 8.0; 25 °C; read-out: HED
[3] = biological target: glutathione transferase chi1 from Synechocystis sp. PCC 6803 (SynGSTC1), wild-type (Synechocystis sp. PCC 6803); test: crystal structure; co-crystallised with 10 mM glutathione and 1 mM TCEP, microbatch under oil at 4 °C; space group P4(3)2(1)2, two polypeptide chains in the asymmetric unit
SynGSTC1 (Sll0067) [4] = biological target: T1, SynGSTC1 (Sll0067); test: GSH-conjugation assay, spectrophotometric […] nm, Michaelis-Menten fit; assay type: biochemical; conditions: fixed saturating GSH; 30 mM Tris-HCl pH 8.0, 1 mM EDTA; 25 °C
purified protein [5] = substrate: S=C=NCCc1ccccc1; test: purified protein; assay type: biochemical, Synechocystis sp. PCC 6803; conditions: fixed saturating GSH, 100 mM phosphate pH 6.5, 25 °C
purified protein [6] = substrate: CCCC(=O)Oc1ccc([N+](=O)[O-])cc1; test: purified protein; assay type: biochemical, Synechocystis sp. PCC 6803; conditions: fixed saturating GSH, 30 mM Tris-HCl pH 8.0, 1 mM EDTA, 25 °C
purified protein [7] = substrate: CC(C)(OO)c1ccccc1; test: purified protein; conditions: fixed GSH, 200 µM NADPH, 30 mM Tris-HCl pH 8.0, 25 °C

Row | Molecule | Km (purified protein [5]) | kcat (purified protein [5]) | kcat/Km (purified protein [5]) | further results
1 | S=C=NCc1ccccc1 [benzyl-isothiocyanate] | – | – | – | Km (SynGSTC1 (Sll0067) [1]): 82 ± 10 µM
2 | OCCSSCCO [2-hydroxyethyl disulfide] | – | – | – | Km (SynGSTC1 (Sll0067) [2]): 3.3 ± 0.4 µM
3 | glutathione transferase chi1 from Synechocystis sp. PCC 6803 (SynGSTC1), wild-type (enzyme) | – | – | – | stoichiometry N [3]: 2
4 | O=[N+]([O-])c1ccc(Cl)c([N+](=O)[O-])c1 [1-chloro-2,4-dinitrobenzene] | – | – | – | Km (SynGSTC1 (Sll0067) [4]): 3790 ± 772 µM
5 | SynGSTC1 (Sll0067) (Synechocystis sp. PCC 6803 substr. Kazusa) (protein, Ni-NTA and size exclusion; about 180 residues; two-fold dimer in crystal) MIKLYGAPQSRASIIQWYLEELSLPYEFVNVNLKEGEHRQAPYLAINPFGKVPAIADGNFHLWESGAILLYLAEKASTIPADAQARALVNQWILFANSTLANGLFIEAVREKEMPRLLQSLEKILGRSPFILGEKFSVVDVAVGSILAYVPIMLKLNFDDYPAVAAYVQGLVQRPAFQASIGAR | 33.8 ± 2.5 µM | 12.6 ± 0.2 s⁻¹ | 373000 ± 6000 M⁻¹ s⁻¹ | Km (purified protein [6]): 162.5 ± 18.3 µM; kcat (purified protein [6]): 0.48 ± 0.2 s⁻¹; Km (purified protein [7]): 1508.0 ± 191.0 µM; kcat (purified protein [7]): 0.91 ± 0.06 s⁻¹
6 | SynGSTC1 (Sll0067) (Synechocystis sp. PCC 6803 substr. Kazusa; S10C) (protein, Ni-NTA and size exclusion; about 180 residues; two-fold dimer in crystal) MIKLYGAPQCRASIIQWYLEELSLPYEFVNVNLKEGEHRQAPYLAINPFGKVPAIADGNFHLWESGAILLYLAEKASTIPADAQARALVNQWILFANSTLANGLFIEAVREKEMPRLLQSLEKILGRSPFILGEKFSVVDVAVGSILAYVPIMLKLNFDDYPAVAAYVQGLVQRPAFQASIGAR | 33.0 ± 3.0 µM | 1.19 ± 0.02 s⁻¹ | 36000 ± 600 M⁻¹ s⁻¹ | –
7 | SynGSTC1 (Sll0067) (Synechocystis sp. PCC 6803 substr. Kazusa; R11A) (protein, Ni-NTA and size exclusion; about 180 residues; two-fold dimer in crystal) MIKLYGAPQSAASIIQWYLEELSLPYEFVNVNLKEGEHRQAPYLAINPFGKVPAIADGNFHLWESGAILLYLAEKASTIPADAQARALVNQWILFANSTLANGLFIEAVREKEMPRLLQSLEKILGRSPFILGEKFSVVDVAVGSILAYVPIMLKLNFDDYPAVAAYVQGLVQRPAFQASIGAR | 108.4 ± 6.0 µM | 0.17 ± 0.003 s⁻¹ | 1530 ± 20 M⁻¹ s⁻¹ | –
8 | SynGSTC1 (Sll0067) (Synechocystis sp. PCC 6803 substr. Kazusa; S10T) (protein, Ni-NTA and size exclusion; about 180 residues; two-fold dimer in crystal) MIKLYGAPQTRASIIQWYLEELSLPYEFVNVNLKEGEHRQAPYLAINPFGKVPAIADGNFHLWESGAILLYLAEKASTIPADAQARALVNQWILFANSTLANGLFIEAVREKEMPRLLQSLEKILGRSPFILGEKFSVVDVAVGSILAYVPIMLKLNFDDYPAVAAYVQGLVQRPAFQASIGAR | 33.6 ± 2.6 µM | 7.2 ± 0.1 s⁻¹ | 214000 ± 4000 M⁻¹ s⁻¹ | –
9 | SynGSTC1 (Sll0067) (Synechocystis sp. PCC 6803 substr. Kazusa; S10A) (protein, Ni-NTA and size exclusion; about 180 residues; two-fold dimer in crystal) MIKLYGAPQARASIIQWYLEELSLPYEFVNVNLKEGEHRQAPYLAINPFGKVPAIADGNFHLWESGAILLYLAEKASTIPADAQARALVNQWILFANSTLANGLFIEAVREKEMPRLLQSLEKILGRSPFILGEKFSVVDVAVGSILAYVPIMLKLNFDDYPAVAAYVQGLVQRPAFQASIGAR | 89.7 ± 6.4 µM | 2.6 ± 0.05 s⁻¹ | 28900 ± 600 M⁻¹ s⁻¹ | –

Source: paper PMC9599700, “Biochemical and Structural Characterization of Chi-Class Glutathione Transferases: A Snapshot on the Glutathione Transferase Encoded by sll0067 Gene in the Cyanobacterium Synechocystis sp. Strain PCC 6803” (Biomolecules, 2022)
